From US20060240417A1, “Agent controlling the apoptosis induction by p73” (Hisamitsu Pharmaceutical Co., Inc., priority 2002, published 2006)

T1: p73alpha (UniProt O15350 O15350:1-636)
T1 sequence: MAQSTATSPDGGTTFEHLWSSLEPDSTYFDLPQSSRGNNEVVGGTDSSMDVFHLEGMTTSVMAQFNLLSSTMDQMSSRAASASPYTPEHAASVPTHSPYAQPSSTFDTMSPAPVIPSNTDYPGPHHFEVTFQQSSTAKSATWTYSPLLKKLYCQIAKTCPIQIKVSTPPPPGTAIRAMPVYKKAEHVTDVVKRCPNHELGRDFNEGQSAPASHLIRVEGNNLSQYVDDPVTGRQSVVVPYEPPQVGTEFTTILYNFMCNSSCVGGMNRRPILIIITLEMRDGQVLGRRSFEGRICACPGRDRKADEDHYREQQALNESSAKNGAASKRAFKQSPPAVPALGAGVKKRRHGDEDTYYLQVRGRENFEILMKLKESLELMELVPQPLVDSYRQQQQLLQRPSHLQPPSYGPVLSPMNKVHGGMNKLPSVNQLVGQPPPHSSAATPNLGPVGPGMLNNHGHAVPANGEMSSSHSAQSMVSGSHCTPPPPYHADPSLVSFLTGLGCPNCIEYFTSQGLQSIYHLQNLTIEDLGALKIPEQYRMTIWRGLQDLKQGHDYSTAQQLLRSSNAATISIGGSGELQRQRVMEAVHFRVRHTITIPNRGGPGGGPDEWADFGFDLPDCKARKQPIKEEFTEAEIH

T2: p73beta (UniProt O15350-2 O15350-2:1-499)
T2 sequence: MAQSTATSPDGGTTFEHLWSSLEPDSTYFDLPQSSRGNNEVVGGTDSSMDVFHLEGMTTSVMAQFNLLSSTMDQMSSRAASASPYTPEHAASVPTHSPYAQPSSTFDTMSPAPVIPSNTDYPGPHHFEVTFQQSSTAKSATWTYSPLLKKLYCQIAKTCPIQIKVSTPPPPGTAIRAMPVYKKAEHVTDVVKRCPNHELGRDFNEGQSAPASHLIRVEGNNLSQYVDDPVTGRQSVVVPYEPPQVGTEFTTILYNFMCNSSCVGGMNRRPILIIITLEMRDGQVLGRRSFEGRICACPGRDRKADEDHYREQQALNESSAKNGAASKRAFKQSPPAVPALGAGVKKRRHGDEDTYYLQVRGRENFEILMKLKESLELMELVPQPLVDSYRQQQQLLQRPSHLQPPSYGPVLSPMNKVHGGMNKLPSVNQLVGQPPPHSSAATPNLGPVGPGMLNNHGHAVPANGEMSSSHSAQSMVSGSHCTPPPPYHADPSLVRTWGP

B1: deltaNp73 promoter 61-bp probe (dsDNA)
DNA 1: GTGCGGTCCAACACATCACCGGGCAAGCTGAGGCCTGCCCCGGACTTGGATGAATACTCAT
DNA 2: ATGAGTATTCATCCAAGTCCGGGGCAGGCCTCAGCTTGCCCGGTGATGTGTTGGACCGCAC

Assays:
[1] = tested on: p73α and ΔNp73α in SH-SY5Y cells; assay: Immunoblot (Western blotting) of cisplatin-treated tumor cells; type: cell-based, human; details: tumor cells treated with cisplatin, RT-PCR
Protocol: The present inventors ascertained that treating tumor cells with the DNA inhibiting agent cisplatin causes apoptosis of the tumor cells in a dose-dependent manner. Production of proteins p53 and p73α was confirmed by Western blotting. The tumor cells in this case are preferably neuroblastoma cells, but may also be other central or peripheral nervous system tumor cells.
The cells were lysed in EBC buffer (50 mM Tris-HCl, pH 8.0/120 mM NaCl/0.5% Nonidet P-40) containing 1 mM phenylmethylsulfonyl fluoride. The lysate was clarified by centrifugation at 14,000 rpm at 4° C. for 15 minutes. The protein concentration was determined by the Bradford procedure. For immunoblot analysis, the proteins were resolved by SDS […] gel electrophoresis and transferred to a nitrocellulose membrane. The membrane filter was blocked with 5% powdered milk in TBST (10 mM Tris-HCl, pH 8.0/150 mM NaCl/0.1% Tween 20) for 1 hour at room temperature. […] The bound secondary antibody was detected by enhanced chemiluminescence (ECL, Amersham Pharmacia Biotech) according to the manufacturer's protocol.
The whole cell protein (40 μg) was extracted from each culture. The expression levels of p73α and p53 were each determined by immunoblot analysis (described above) using p73α-specific antibody (Ab-1) or p53-specific antibody (DO-1). […]

p73alpha = molecular target: T1, p73alpha; assay: EMSA; supershifted by anti-HA; poly(dI-dC), 3.125 mM MgCl2, room temperature; details: tags: HA tag; TNT reticulocyte lysate; label: 32P
p73beta = molecular target: T2, p73beta; assay: as above; details: tags: HA tag; TNT reticulocyte lysate; label: 32P

Row | Molecule | production of p73α and ΔNp73α at mRNA and protein level [1] | binding result (p73alpha) | binding result (p73beta)
1 | N.N.[Cl][Pt][Cl] [cisplatin] | induces production of p73α and ΔNp73α |  | 
2 | B1 |  | binds | binds
